{"source": "patent US20240132485A1", "about": "“HETEROCYCLIC CULLIN RING UBIQUITIN LIGASE COMPOUNDS AND USES THEREOF” (CEMM - FORSCHUNGSZENTRUM FÜR MOLEKULARE MEDIZIN GMBH, priority 2020, published 2024)", "key": {"[1]": {"target": "Nanoluc_DDB1 (N-terminal Nanoluc luciferase, G4S linker, DDB1 (FL)) (UniProt Q16531)", "sequence (Q16531 other isoform, or with tags, fused parts or gaps)": "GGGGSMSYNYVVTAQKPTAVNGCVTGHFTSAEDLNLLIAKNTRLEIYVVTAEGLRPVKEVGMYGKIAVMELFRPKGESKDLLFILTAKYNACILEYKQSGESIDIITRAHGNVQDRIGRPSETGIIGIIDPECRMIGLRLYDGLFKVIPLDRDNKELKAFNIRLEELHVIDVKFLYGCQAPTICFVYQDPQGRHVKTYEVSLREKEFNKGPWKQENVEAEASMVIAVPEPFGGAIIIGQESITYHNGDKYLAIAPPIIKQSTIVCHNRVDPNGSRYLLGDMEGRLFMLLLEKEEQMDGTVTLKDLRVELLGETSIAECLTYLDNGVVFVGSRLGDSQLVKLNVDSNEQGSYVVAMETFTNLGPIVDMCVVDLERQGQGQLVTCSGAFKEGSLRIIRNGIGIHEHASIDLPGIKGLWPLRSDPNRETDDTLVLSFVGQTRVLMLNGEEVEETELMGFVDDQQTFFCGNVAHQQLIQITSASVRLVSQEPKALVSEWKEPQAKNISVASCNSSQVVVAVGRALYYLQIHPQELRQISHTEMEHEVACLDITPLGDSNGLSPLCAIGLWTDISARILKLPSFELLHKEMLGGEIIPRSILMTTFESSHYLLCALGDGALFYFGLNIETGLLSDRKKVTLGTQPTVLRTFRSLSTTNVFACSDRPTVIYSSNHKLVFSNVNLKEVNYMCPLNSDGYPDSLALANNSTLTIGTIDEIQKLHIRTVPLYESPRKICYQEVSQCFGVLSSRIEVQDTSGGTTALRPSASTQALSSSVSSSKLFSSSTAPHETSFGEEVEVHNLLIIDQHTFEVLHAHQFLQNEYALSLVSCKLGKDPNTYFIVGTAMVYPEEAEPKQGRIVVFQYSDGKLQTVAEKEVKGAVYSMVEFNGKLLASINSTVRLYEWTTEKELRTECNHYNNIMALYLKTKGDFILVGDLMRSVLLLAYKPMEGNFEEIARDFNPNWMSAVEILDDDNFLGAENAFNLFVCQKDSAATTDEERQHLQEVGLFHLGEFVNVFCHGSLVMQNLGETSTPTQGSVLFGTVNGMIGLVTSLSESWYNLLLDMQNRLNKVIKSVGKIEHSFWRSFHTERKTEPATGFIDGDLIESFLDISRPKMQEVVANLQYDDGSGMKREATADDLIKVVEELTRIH", "experiment": "NanoBRET in HEK293T cells, 10 µM compound Example 3-49; class B = 3-4 fold increase"}, "[2]": {"target": "Nanoluc_DDB1 (N-terminal Nanoluc luciferase, G4S linker, DDB1 (FL)) (UniProt Q16531)", "experiment": "NanoBRET in HEK293T cells, 10 µM compound Example 3-63; class B = 3-4 fold increase"}, "[3]": {"target": "Nanoluc_DDB1 (N-terminal Nanoluc luciferase, G4S linker, DDB1 (FL)) (UniProt Q16531)", "experiment": "NanoBRET in HEK293T cells, 10 µM compound Example 3-51; class B = 3-4 fold increase"}, "[4]": {"target": "Nanoluc_DDB1 (N-terminal Nanoluc luciferase, G4S linker, DDB1 (FL)) (UniProt Q16531)", "experiment": "NanoBRET in HEK293T cells, 10 µM compound Example 3-43; class A = greater than 4-fold increase"}, "[5]": {"target": "Nanoluc_DDB1 (N-terminal Nanoluc luciferase, G4S linker, DDB1 (FL)) (UniProt Q16531)", "experiment": "NanoBRET in HEK293T cells, 10 µM compound Example 3-50; class A = greater than 4-fold increase"}, "[6]": {"target": "Nanoluc_DDB1 (N-terminal Nanoluc luciferase, G4S linker, DDB1 (FL)) (UniProt Q16531)", "experiment": "NanoBRET in HEK293T cells, 10 µM compound Example 3-40; class B = 3-4 fold increase"}, "[7]": {"target": "Nanoluc_DDB1 (N-terminal Nanoluc luciferase, G4S linker, DDB1 (FL)) (UniProt Q16531)", "experiment": "NanoBRET in HEK293T cells, 10 µM compound Example 3-34; class C = 2-3 fold increase"}, "[8]": {"target": "Nanoluc_DDB1 (N-terminal Nanoluc luciferase, G4S linker, DDB1 (FL)) (UniProt Q16531)", "experiment": "NanoBRET in HEK293T cells, 10 µM compound Example 3-36; class C = 2-3 fold increase"}, "[9]": {"target": "Nanoluc_DDB1 (N-terminal Nanoluc luciferase, G4S linker, DDB1 (FL)) (UniProt Q16531)", "experiment": "NanoBRET in HEK293T cells, 10 µM compound Example 3-26; class C = 2-3 fold increase"}, "[10]": {"target": "Nanoluc_DDB1 (N-terminal Nanoluc luciferase, G4S linker, DDB1 (FL)) (UniProt Q16531)", "experiment": "NanoBRET in HEK293T cells, 10-point titration of compound Example 3-4; class A = EC50<=0.25 µM"}, "[11]": {"target": "Nanoluc_DDB1 (N-terminal Nanoluc luciferase, G4S linker, DDB1 (FL)) (UniProt Q16531)", "experiment": "NanoBRET in HEK293T cells, 10 µM compound Example 3-60; class C = 2-3 fold increase"}, "[12]": {"target": "Nanoluc_DDB1 (N-terminal Nanoluc luciferase, G4S linker, DDB1 (FL)) (UniProt Q16531)", "experiment": "NanoBRET in HEK293T cells, 10 µM compound Example 3-58; class C = 2-3 fold increase"}, "[13]": {"target": "Nanoluc_DDB1 (N-terminal Nanoluc luciferase, G4S linker, DDB1 (FL)) (UniProt Q16531)", "experiment": "NanoBRET in HEK293T cells, 10 µM compound Example 3-11; class A = greater than 4-fold increase"}, "[14]": {"target": "Nanoluc_DDB1 (N-terminal Nanoluc luciferase, G4S linker, DDB1 (FL)) (UniProt Q16531)", "experiment": "NanoBRET in HEK293T cells, 10 µM compound Example 3-64; class A = greater than 4-fold increase"}, "[15]": {"target": "Nanoluc_DDB1 (N-terminal Nanoluc luciferase, G4S linker, DDB1 (FL)) (UniProt Q16531)", "experiment": "NanoBRET in HEK293T cells, 10 µM compound Example 3-47; class A = greater than 4-fold increase"}, "[16]": {"target": "Nanoluc_DDB1 (N-terminal Nanoluc luciferase, G4S linker, DDB1 (FL)) (UniProt Q16531)", "experiment": "NanoBRET in HEK293T cells, 10 µM compound Example 3-10; class C = 2-3 fold increase"}, "[17]": {"target": "Nanoluc_DDB1 (N-terminal Nanoluc luciferase, G4S linker, DDB1 (FL)) (UniProt Q16531)", "experiment": "NanoBRET in HEK293T cells, 10 µM compound Example 3-41; class C = 2-3 fold increase"}, "[18]": {"target": "Nanoluc_DDB1 (N-terminal Nanoluc luciferase, G4S linker, DDB1 (FL)) (UniProt Q16531)", "experiment": "NanoBRET in HEK293T cells, 10 µM compound Example 3-38; class B = 3-4 fold increase"}, "[19]": {"target": "Nanoluc_DDB1 (N-terminal Nanoluc luciferase, G4S linker, DDB1 (FL)) (UniProt Q16531)", "experiment": "NanoBRET in HEK293T cells, 10 µM compound Example 3-45; class A = greater than 4-fold increase"}, "[20]": {"target": "Nanoluc_DDB1 (N-terminal Nanoluc luciferase, G4S linker, DDB1 (FL)) (UniProt Q16531)", "experiment": "NanoBRET in HEK293T cells, 10-point titration of compound Example 3-22; class E = >10 µM"}, "[21]": {"target": "Nanoluc_DDB1 (N-terminal Nanoluc luciferase, G4S linker, DDB1 (FL)) (UniProt Q16531)", "experiment": "NanoBRET in HEK293T cells, 10 µM compound Example 3-62; class A = greater than 4-fold increase"}, "[22]": {"target": "Nanoluc_DDB1 (N-terminal Nanoluc luciferase, G4S linker, DDB1 (FL)) (UniProt Q16531)", "experiment": "NanoBRET in HEK293T cells, 10 µM compound Example 3-22; class B = 3-4 fold increase"}, "[23]": {"target": "Nanoluc_DDB1 (N-terminal Nanoluc luciferase, G4S linker, DDB1 (FL)) (UniProt Q16531)", "experiment": "NanoBRET in HEK293T cells, 10 µM compound Example 3-33; class A = greater than 4-fold increase"}, "[24]": {"target": "Nanoluc_DDB1 (N-terminal Nanoluc luciferase, G4S linker, DDB1 (FL)) (UniProt Q16531)", "experiment": "NanoBRET in HEK293T cells, 10 µM compound Example 3-46; class B = 3-4 fold increase"}, "[25]": {"target": "Nanoluc_DDB1 (N-terminal Nanoluc luciferase, G4S linker, DDB1 (FL)) (UniProt Q16531)", "experiment": "NanoBRET in HEK293T cells, 10 µM compound Example 3-44; class A = greater than 4-fold increase"}, "[26]": {"target": "Nanoluc_DDB1 (N-terminal Nanoluc luciferase, G4S linker, DDB1 (FL)) (UniProt Q16531)", "experiment": "NanoBRET in HEK293T cells, 10 µM compound Example 3-35; class A = greater than 4-fold increase"}}, "data": [{"substance": "HaloTag_CDK12 (N-terminal HaloTag, G4S linker, CDK12 (713-1052)) (from UniProt Q9NYV4 713-1052) (enzyme)", "values": [{"measurement": "NanoBRET fold increase", "setting": "[1]", "value": "3 to 4", "unit": "fold"}, {"measurement": "NanoBRET fold increase", "setting": "[2]", "value": "3 to 4", "unit": "fold"}, {"measurement": "NanoBRET fold increase", "setting": "[3]", "value": "3 to 4", "unit": "fold"}, {"measurement": "NanoBRET fold increase", "setting": "[4]", "value": "> 4", "unit": "fold"}, {"measurement": "NanoBRET fold increase", "setting": "[5]", "value": "> 4", "unit": "fold"}, {"measurement": "NanoBRET fold increase", "setting": "[6]", "value": "3 to 4", "unit": "fold"}, {"measurement": "NanoBRET fold increase", "setting": "[7]", "value": "2 to 3", "unit": "fold"}, {"measurement": "NanoBRET fold increase", "setting": "[8]", "value": "2 to 3", "unit": "fold"}, {"measurement": "NanoBRET fold increase", "setting": "[9]", "value": "2 to 3", "unit": "fold"}, {"measurement": "EC50", "setting": "[10]", "value": "< 0.25", "unit": "µM"}, {"measurement": "NanoBRET fold increase", "setting": "[11]", "value": "2 to 3", "unit": "fold"}, {"measurement": "NanoBRET fold increase", "setting": "[12]", "value": "2 to 3", "unit": "fold"}, {"measurement": "NanoBRET fold increase", "setting": "[13]", "value": "> 4", "unit": "fold"}, {"measurement": "NanoBRET fold increase", "setting": "[14]", "value": "> 4", "unit": "fold"}, {"measurement": "NanoBRET fold increase", "setting": "[15]", "value": "> 4", "unit": "fold"}, {"measurement": "NanoBRET fold increase", "setting": "[16]", "value": "2 to 3", "unit": "fold"}, {"measurement": "NanoBRET fold increase", "setting": "[17]", "value": "2 to 3", "unit": "fold"}, {"measurement": "NanoBRET fold increase", "setting": "[18]", "value": "3 to 4", "unit": "fold"}, {"measurement": "NanoBRET fold increase", "setting": "[19]", "value": "> 4", "unit": "fold"}, {"measurement": "EC50", "setting": "[20]", "value": "> 10", "unit": "µM"}, {"measurement": "NanoBRET fold increase", "setting": "[21]", "value": "> 4", "unit": "fold"}, {"measurement": "NanoBRET fold increase", "setting": "[22]", "value": "3 to 4", "unit": "fold"}, {"measurement": "NanoBRET fold increase", "setting": "[23]", "value": "> 4", "unit": "fold"}, {"measurement": "NanoBRET fold increase", "setting": "[24]", "value": "3 to 4", "unit": "fold"}, {"measurement": "NanoBRET fold increase", "setting": "[25]", "value": "> 4", "unit": "fold"}, {"measurement": "NanoBRET fold increase", "setting": "[26]", "value": "> 4", "unit": "fold"}]}]}
